Measured values published in patent publication US5981483, “Compositions comprising modulators of cytokines of the TGF-β superfamily” (Mount Sinai Hospital Corporation, dated 1999).
Bridges are numbered along the chain shown (N, C = ends). Where no end group is shown, it is not given here.

B1: cyclized TRH1b peptide from TβRII (peptide)
peptide: CVAVWRKNDENITLETVC
modifications: disulfide 1-18 (inferred); also: exact limits not given here, terminal residues may be removed
B2: reduced and alkylated TRH1b peptide from TβRII (peptide)
peptide: CVAVWRKNDENITLETVCHD
modifications: also: Cys reduced and alkylated, agent not given here, exact limits not given here
B3: recombinant human BMP-2 (ligand)
chain: QAKHKQRKRLKSSCKRHPLYVDFSDVGWNDWIVAPPGYHAFYCHGECPFPLADHLNSTNHAIVQTLVNSVNSKIPKACCVPTELSAISMLYLDENEKVVLKNYQDMVVEGCGCR
B4: bovine fetuin (other)
chain: IPLDPVAGYKEPACDDPDTEQAALAAVDYINKHLPRGYKHTLNQIDSVKVWPRRPTGEVYDIEIDTLETTCHVLDPTPLANCSVRQQTQHAVEGDCDIHVLKQDGQFSVLFTKCDSSPDSAEDVRKLCPDCPLLAPLNDSRVVHAVEVALATFNAESNGSYLQLVEISRAQFVPLPVSVSVEFAVAATDCIAKEVVDPTKCNLLAEKQYGFCKGSVIQKALGGEDVRVTCTLFQTQPVIPQPQPDGAEAEAPSAVPDAAGPTPSAAGPPVASVVVGPSVVAVPLPLHRAHYDLRHTFSGVASVESSSGEAFHVGKTPIVGQPSIPGGPVRLCPGRIRYFKI

What was measured:
recombinant human BMP-2 [1] = biological target: B3; assay: SPR (BIAcore); analyte over immobilized cytokine; repeated calculation
Procedure: (§1) Data was analyzed using the BIA-evaluation software (Pharmacia Biosensor). The association rate constant, $kass$, was calculated by first plotting the change in response with time versus response (i.e. dR/dT vs R). When the slope of the line from this graph is plotted versus analyte concentration (i.e d(dR/dT)/dR vs C), $kass$ is obtained from the slope of the line. The dissociation rate constant, $kdiss$, is obtained during the decrease in response with time after analyte injection is discontinued. Specifically, $kdiss$ was obtained from the slope of the line in a plot of $\ln(Rt1/Rtn)$ vs time. The affinity constants were calculated from K_D = kdiss/kass. Variance for $kass$ is standard error of the linear regression plot, and for $kdiss$ values are the mean ± range of 3 or more independent injections.
(§2) Binding constants for fetuins and TRH1 peptide interactions with TGF-β and BMPs measured using the BIAcore and BIA-evaluation software (Pharmacia Biosensor). The change in response with time was plotted for each analyte concentration (ie. dR/dT vs R), and the slope of these lines were then plotted as a function of analyte concentration (i.e d(dR/dT)/dR vs C), where the slope yields $kass$. The dissociation rate constant, $kdiss$, is obtained after analyte injection is discontinued as the slope of $\ln(Rtl/Rtn)$ vs time. K_Ds are $kdiss/kass$. Variance for $kass$ is standard error of the linear regression plot, and for $kdiss$ values are the mean ± range of 3 or more independent injections.

purified human TGF-β1 [2] = biological target: T1, purified human TGF-β1 (human, UniProt P01137); assay: as above
Procedure: as §1, §2

recombinant human BMP-2 [3] = biological target: B3; assay: SPR (BIAcore); analyte over immobilized cytokine
Procedure: (§3) In this system, a purified protein serving as the ligand is covalently coupled to a carboxymethylated dextran surface, and binding molecules (i.e. the analyte) are passed in a fluid phase across the surface. Binding of the analyte to ligand causes a change in reflected light which is directly proportional to mass bound, and is measured in arbitrary response units (R.U.). Analyte-ligand binding is observed as both increasing response with time during the injection of analyte, and the difference in the position of the baseline before and after injection.
as §1
(§4) Data was analyzed using the BIA-evaluation software (Pharmacia Biosensor). The association rate constant, $kass$, was calculated by first plotting the change in response with time versus response (ie. dR/dT vs R).

purified human TGF-β1 [4] = biological target: T1, purified human TGF-β1; assay: SPR (BIAcore); analyte over immobilized cytokine
Procedure: as §3, §1, §4

[5] = biological target: T2, adult human fetuin/α2-HS glycoprotein (human, UniProt P02765); assay: SPR (BIAcore); analyte over immobilized cytokine
T2 sequence: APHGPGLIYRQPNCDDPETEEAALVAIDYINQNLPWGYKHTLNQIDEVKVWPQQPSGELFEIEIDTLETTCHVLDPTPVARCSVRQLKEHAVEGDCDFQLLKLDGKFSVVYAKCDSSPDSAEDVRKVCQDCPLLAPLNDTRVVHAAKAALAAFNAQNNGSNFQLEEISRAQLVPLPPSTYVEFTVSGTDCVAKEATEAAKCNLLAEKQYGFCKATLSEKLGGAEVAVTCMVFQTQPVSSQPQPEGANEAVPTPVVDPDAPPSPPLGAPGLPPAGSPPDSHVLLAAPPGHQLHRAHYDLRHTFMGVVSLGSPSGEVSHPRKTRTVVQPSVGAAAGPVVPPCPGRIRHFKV
Procedure: as §3, §2

bovine serum albumin = bovine serum albumin (bovine, UniProt P02769); assay: SPR (BIAcore), BMP-2 immobilized
Procedure: as §3

bovine fetuin [6] = biological target: B4; assay: SPR (BIAcore); analyte over immobilized cytokine; repeated calculation
Procedure: as §1, §2

bovine fetuin [7] = biological target: B4; assay: SPR (BIAcore); analyte over immobilized cytokine
Procedure: as §3, §1, §4

recombinant human BMP-2 [8] = biological target: B3; assay: SPR (BIAcore)

B1
Kd (recombinant human BMP-2 [1]): > 10000 nM
Kd (purified human TGF-β1 [2]): 1000 nM
koff (purified human TGF-β1 [2]): 0.0023 s⁻¹
kon (purified human TGF-β1 [2]): 2200 M⁻¹ s⁻¹
Kd (recombinant human BMP-2 [3]): > 10000 nM
Kd (purified human TGF-β1 [4]): 520 nM
koff (purified human TGF-β1 [4]): 0.0019 s⁻¹
kon (purified human TGF-β1 [4]): 3700 M⁻¹ s⁻¹

B2
Kd (purified human TGF-β1 [2]): > 10000 nM
Kd (purified human TGF-β1 [4]): > 10000 nM

B3
Kd [5]: 51 nM
binding result (bovine serum albumin): no binding (tested: 0.22, 0.29, 0.44, 0.59, 0.88 µM)
Kd (bovine fetuin [6]): 27 nM
Kd (bovine fetuin [7]): 36 nM

B4
fold greater affinity than fetuin binding to TGF-β1 (recombinant human BMP-2 [8]): ~100 times
